# Laboratory results as given in publication doi:10.1101/2024.01.09.574827, “Discovery and binding mode of small molecule inhibitors of the apo form of human TDO2” (bioRxiv, 2024).
# B1: truncated human apo-TDO2 (aa 39-389) with a C-terminal hexa-histidine tag (enzyme, UniProt P48775 39-389, looked up)
# chain: GLIYGNYLHLEKVLNAQELQSETKGNKIHDEHLFIITHQAYELWFKQILWELDSVREIFQNGHVRDERNMLKVVSRMHRVSVILKLLVQQFSILETMTALDFNDFREYLSPASGFQSLQFRLLENKIGVLQNMRVPYNRRHYRDNFKGEENELLLKSEQEKTLLELVEAWLERTPGLEPHGFNFWGKLEKNITRGLEEEFIRIQAKEESEEKEEQVAEFQKQKEVLLSLFDEKRHEHLLSKGERRLSYRALQGALMIYFYREEPRFQVPFQLLTSLMDIDSLMTKWRYNHVCMVHRMLGSKAGTGGSSGYHYLRSTVSDRYKVFVDLFNLSTYLIPRHWIPKMNPTIHKFL
# notes: human tryptophan-2,3-dioxygenase (TDO2), P48775.1, amino acids 39-389, heme-free (apo) form; S1 Text is said to show additional amino acids introduced as a linker or during subcloning; calculated molecular mass 42940.24 Da; also called tryptophan-2,3-dioxygenase; TDO2 aa39-389-His6; source: E. coli RP523 (hemB mutant, unable to synthesize heme), anaerobic expression, purified (HisTrap, HiTrap Q, …)
# Target: the molecule itself
# Test: crystal structure; sitting drop vapour diffusion at 293 K; truncated apo-TDO2 with 2 mM AMT, alone or after incubation with 1 mM inhibitor (Rac-1, Cpd-1, Cpd-4)
protein,measurement,value
B1,stoichiometry N,4
